Assay: yeast display, Sf9 membrane polyspecificity reagent, FACS + sequencing; frameworks hold sequencing errors
Summary of the method: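 A synthetic nanobody library was expressed on Saccharomyces cerevisiae BJ5465 by galactose induction for 36–48 hours. The library was stained for 1 hour at 4 °C with 10% biotinylated, detergent-solubilized Sf9 membrane reagent and enriched with streptavidin microbeads before FACS. Low and high (top ~1%) gates were set on anti-HA fluorescence for expression and streptavidin fluorescence for reagent binding, and each polyreactivity label reflects the gate of origin.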

Sequence	polyreactivity (PSR sort gate)
QVQLQESGGGLVQEGGSLRLSCAASGNISPPADMGWYRQAPGKERELVASIGTGGTTNYADSVKGRFTISRDNAKNTVYLQMNSLKPDDTAVYYCAAVRYEYNPYDYWGEGTQVTVSS	low polyreactivity
QVQLVESGGGLVQAGGSLRLSCAASGRTFVFYTMGWYRQAPGKERELVAAINSRGGRTYYADSVKGRFTISRDNAKNPVYLQMNSLKPEDTAVYYCNAAFYVTDHDYWGKGTQVTVSS	high polyreactivity
QVQLVESGGGLVQAGGSLRLSCAASGFISLRNTMGWYRQAPGKERELVAAINWSGGSTYYADSVKGRFTISRDNAKNTVYLQMNSLKPEDTAVYYCAKGPWPPIYRLFPGYAKFGYWGQGTQVTVSS	low polyreactivity
QVQLVESGGGLVQAGGSLRLSCAASGRTFTVYAMGWYRQAPGKEREFVASISKSGGRTYYADSVKGRFTISRDNAKNTVYLQMNSLKPEDTAVYYCAKVETYLQIAYRRGYDSWGQGTQVTVSS	low polyreactivity
QVQLVESGGGLVQAGGSLRLSCAASGFNFRTNAMGWYRQAPGKERELVAAISRSGNTYYADSVKGRFTISRDNAKNTVYLQMNSLKPEDTAVYYCAAQSVRWYSSFKYYYWRQGTQVTVSS	high polyreactivity
QVQLQESGGGLVQAGGSLRLSCAASGTISQEDWMGWYRQAPGKEREFVAAIGLGSNTNYADSLKGRFSISRDPAKITVYLQMNSLKPEDTAVYYCAVSVWQYSDHVYRGQGTQVTVSS	low polyreactivity
QVQLVESGGGLVQAGGSLRLSCAASGSTFRANLMGRYRQAPGKERELVAAITSAGGSTYYADSVKGRFTISRDNAKNTVYIQMNSLKPEDTAVYYCNKQERPGPGRARYNYWGQGTQVTVSS	high polyreactivity
QVQLVESGGGLVQAGGSLRLSCAASGFTFRWYAMGWYRQAPGKERELVARISWDGGSTYYADSVKGRFTISRDNAKNTVYLQMNSLKPEDTAVYDCAKDWYYLRRNYDYWGQGTQVTVSS	high polyreactivity
QVQLVESGGGLVQAGGSLRLSCAASGRIFGLYAMGWYRQAPGKERELVAAIRGRGGRTSYADSVKGRFTISRDNAKNTVYLQMNSLKPEDTAVYYCNAELYPWPGVVRYNYWGHGTQVTVSS	high polyreactivity
QVQLVESGGGLVQAGGSLRLSCAASGSIIFYYAMGWYRQAPGKERDFVAGITYSGGITYYADSVKGRFTISRDNAKNTVYLQMNSMKPEDTAVYFCDYGGGVYQYGYWGQGTQVTVSS	low polyreactivity
QVQLVESGGGLVQPGGSLRLSCAASGSIFAWYVMGWYRQAPGKERELVAGIDTSGGTTFYADSVKGRFTISRDNAKNTVYVQMNSLKPEDTAVYYCAADTWYRGPWEFDYWGQGTQVTVSS	low polyreactivity
QVHLVESGGGLVQAGGSLRLSCAASGRLFFYALGWYRQSPRKERELVAAISWSGGSTYYADSVKGRFTISRDNAKNTVYLQMNSLKPEDTAVYYCAADYEGWGYDYRGDYWGQGTQVTVSS	low polyreactivity
QVQLVESGGGLVQAGGSLRLSSAASGRIFYKYAMGWNRQAPGKERELVAGITGSGGSTYYADSVKGRFTISRDNAKNTVYLQMNSLKPEDTAVYYCAKRVSYDYWGQGTQVTVSS	low polyreactivity
QVHLVESGGGLVQAGGSLRLRCAASGSTFEYNAMGWYRPAPGKERELVASSTNYADSVKGRFTISRDNAKNTVSLQMNSLKPEDTAVYYCSREQGVNRNHDYWVQGTQVTVSS	low polyreactivity
QVQLVDSGGGLVQAGGSLRLSSAASGITFQRYAMGWYRQAPGKERELVAGINGRGGSTYYADSVKGRFTISRDNAKNTVYLQMNSLKPEDTAVYYCNAVYAGRYFGFDYWGQGTQVTVSS	high polyreactivity
QVQLVESGGGLVQAGGSLRLSCAASGSNFDTYAMGRYRQAPGKERELVAAITRRAGSTYYADSVKGRFRISRDNAKNTVYLQMNSLKPEDTSVYYCAADFRYPDIYGGYDYWGQGTQVTVSS	low polyreactivity
QVQLVESGGGLVQAGGSLRLSCAASGSTFTLYAMGGYIQAPGKERELVAAITSDDSTYYADSVKGRFTISRDNAKNTVYLQMNSLKPEDTAVYYCAADVYYGDFEMDYWGQGTQVTVSS	low polyreactivity
QVQLVESGGGLVQAGVSLRLSCAASGFILDYNTMGWYRQAPGKERELVAAISSSGDTTYYADSVKGRFTISRDNAKNTVYLQMNSLKREDTAVYYCAREYGVGYEYWGLGTQVTVSS	low polyreactivity
QVQLVESGGGLVQAGGSLRLSCAASGSTFFGNAMGWYRQAPGKERELVAVITKGGGSTYYADSVKGRFTISRDNAKNTVYLQMNSLKPEDTAVYYCAKTYTSGYHRRYDYWGQGTQVTVSS	low polyreactivity
QVQLVESGGGLVQAGGSLRLSCAASGRTFLRYRMGWYRQAPGKERELVATISRSGGGTTYADSVKGRFTISRYNAKNTVYLQMNSLKPEDTAVYYCNRDQTYPYQYNRWVGQYKYDYWGQGTQVTVSS	low polyreactivity
QLQLVESGGGLVQAGGSLRLSFAAYGRTFTSNAKGWSRPAPGKERELVAGITSSTGNTHYADSVKGRFTSSRDNAKNTVNFQMNSLKPEDTAVFYCAAVYYVRGYWGTYSRWYDYWGQGTQVTVSS	high polyreactivity
QVQLVESGGGLVQAGGSLRLSCAASGRIFPTNAMGWSRQAPGKERELVASITRSGSTYYADSVKGRFTISRDHAKNTVYLQMNSLKPEDTAVYYCAGYAYIFLDWGGYPYYLYEYDYWGQGTQVTVSS	low polyreactivity

Sequence	polyreactivity (PSR sort gate)
QVQLVESGGGLVQAGGSLRLSCAASGSTLRAYTMGWYRQAPGKERELVATITRRGGTTYYADSVKGRFTISRDNAKNTVYLQMNSLKPEDTAVYYCAAKWYSTHRYDYWGQGTQVTVSS	high polyreactivity
QVQLVESGGGLVQAGGSLRLSCAASGFTIQPYTMGWYRQATGKERELVAAISKSGGSTYYADSVKGRFTISRDNAKNTVYLQMHSLKPEDTAVYYCAAVGWWGTSDYWGQGTQVTVSS	high polyreactivity
QGQLVESCGGLVQAGGSLLLSCAASGRIFRSYAMGGYRPAPGKERELVASMSTGGSTNYADSVKGRFTFSRDTAKNSGYLQKNRLKPEDTAVYYCAAGPYYKYWGQRYNYWGQGTQVTVSS	high polyreactivity
QVQLVESGGGLVQAGGSLRLSCAASGGIFHNYAMGWYRQAPGKERELVAAITTSDGSTYYEDSVKGRFTISRDIAKNTVYLEMNSLKPEDTAVYYCNAEYLYTVYFDDGGFIMDYWGQGTQVTVSS	low polyreactivity
QVQLVESGGGLVQEGGSLRLSCAASGRTFPYTVMGWYRQAPGKERELVAGITGSGDSTFYADSVKGRFTISRDNAKNTVYIQMNSLKPEDTAVYYCAARYRTLNDGYIRIYWGQGTQVTVSS	low polyreactivity
QVQLVESGGGLVQAGGSLRLSCAASGSIFKGYALGWYRQAPGKERELVAAITYSGGGTYYADSVKGRFTISRDNAKNTVYLQMNSLKPEDTAVYYCNADRYYPDDLSDGVGTYDYWGQGTQVTVSS	low polyreactivity
QVHLVESGGGLVQAGGSLRLSCAASGSTLFPYAMGWYRQAPGKERELVAAISSRGGRTYYADSVKGRFTISRDNAKNTVYLQMNSLKPEVTAVYYCAAGDDYWGQGTEVTVSS	high polyreactivity
QVQLVESGGGLVQAGGSLRLSCAASGSIFEGNAMGWYRQAPGKERELVAAISTTGGITYYADSVKGRFTISRDNAKNTVFLQMNSLKPEDTAVYYCAADPSQPRIDSSNYDYWGQGTQVTLSS	low polyreactivity
QVQLVESGGGLVQAGGSLRLSCAASGFTFPGNAMGWYRQAPGKERELVAAISRSGAGTYYADSVKGRFTISRDNAKNTDYLQMNRLKPEDTAVYYCNAVYSSWDYHYRYGYWGQGTQVTVSS	high polyreactivity
QVQLVESGGGLVQAGGRLRLSCAASGSTFKAYAMGWYRQAPGKERELVAAISSGGSRTYYADSVKGRFTISRDNAKITVYLQMHRLKPEDIEVYYCAARKADTVFKFEYWGQGTLVTVSS	high polyreactivity
QVQLVESGGGLVQGGGSLRLSCAASGRILYSYAMGWYRQAPGKERELVAAISWRGGPTYYADSVKGRFTISRDNAKNTVYLQLNSLKPEDTAVSNCAPEFYDHPWMYDYWGQGTQVTVSS	low polyreactivity
QVQLVESGGGLVQAGGSLRLSCAASGRIFYHYAMGWYRQAPGKERELVAVIRSTGSTNYADSVKGRFTISRDNAKNTVYFQLKSLIPEDTAVYYCAVRRATFSYWYFNGGYWGQGTQVTVSS	high polyreactivity
QVQLVESGGGLVQAGGSLRLSCAASGRTINRYAMGWYRQAPGKERELVAVITSDGRTNYADSVKGRFTISRDNAKNTVYLQMNSLKPEDTAVYYCNKRSALSFVYDFDYWGQGTQVTVSS	low polyreactivity
QVQLVESGGGLVQAGGSLSLICAASGFTFLIYAMGWYRQAPGKERELVAAITWRGSGTYYADSVKGRFTISRDNAKNTVYLQMNSLKPEDTAVYYCAARTARRTYDYWGQGTQVTLSS	low polyreactivity
QVQLVESGGGLVQAGGSLRLSCAASGSIFTLYDMGWYRQAPGKERELVAAITSGGSTDYADSVKGRFTISRDNAKNTVYFQMNSLKPEDTAVYYCNAEAYPYWYRGASREYDYWGQGTQVTVSS	low polyreactivity
QVQLVESGGGLVQAGGSLRLSCAASGSTFRRYAMGWYRQAPGNERELVAAITGSGGRTYYADSVKGRFTISRDNAKNTVYLQMNSLKPEDTAVYYCAARGTHSRRRYYYWGQGTQVTVSS	high polyreactivity
HVQLVESGGGLVQEGRSLRLSCAASGFTFVGNAMGWYRQATGKERELVAAIRWSSGSTYYADSVKWRFTISRDNAKNTVYLQMNSLKPDDTAVYYCNAVYSVFYEYDYWGQGTQVTVSS	low polyreactivity
QVQLVESGGGLVQAGGSLRLSCAASVRIFGYNAMGWSRQAPGKERYLVAAITTSGGSTYYADSVKGRFTISRDNAKNTVYLQMNSLKPEDTAVYYCARDSLQVFYPYASDDYWGQGTQVTVSS	low polyreactivity
QVQLVETGGGLVQARGSLRLSCAASGRIFRRYAMGWYRQAPGKERELVAAISSGGSTDYADSVKGRFTISRDNAKNTVYLQMNSLKPEDTAVYYCARRGPYYNVGLFDSWGQGTQVTVSS	low polyreactivity
QVQLVESGGGLVQAGGSLRLSCAASGRIFWYNAMGWSRQAPGKESELVAAISWRGSRTYYADSVKGRFTISRDNAKNTVYLQMNSLKPEDTAVYYCAADPDVYAYYGYDYWGQGTQVTVSS	high polyreactivity
QVQLVESGGGLVQAGGSLRLSCAASGIIFAAYVMGWYRQAPGKERELVAAISKSGGRTYYADSVKGRFTISRDNAKNTVYLQMNSLKPEDTAVYYCATDVRVGHIRDYDYWGQGTQVTVSS	high polyreactivity
